# According to the supplement of paper PMC9170038:
# System: MS2 coat protein
# Test: apparent KD of MS2 coat protein; designed switch direction (-1 OFF switch, 1 ON switch): -1; higher = weaker reporter binding
# Method in brief: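 The apparent KD reported per design is the median over clusters of curve fits to normalised cluster fluorescence. The RNA switches were transcribed on Illumina chips by stalled E. coli RNA polymerase. SNAP-549-labelled MS2 coat protein was titrated from 0.7 or 1.5 nM, doubling up to 3 µM, in Tris-HCl pH 7.5 buffer containing KCl, MgCl2, BSA, DTT, tRNA and Tween-20, with no input, 200 uM small-molecule ligand, or an oligonucleotide input.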
# [1] = Eterna round: R95, input ligand: microRNA oligo, concentration not stated
# [2] = input ligand: microRNA oligo, concentration not stated
Sequence,apparent KD of MS2 coat protein [1] [nM],apparent KD of MS2 coat protein (input ligand: FMN 200 uM) [nM],apparent KD of MS2 coat protein [2] [nM],apparent KD of MS2 coat protein (input ligand: none) [nM]
GUCUCGUCAGGAUAUGACGCUACAUUUUUUUUUUAGAAGAGUCAGAAGGGACAUGAGGAUCACCCAUGUGAUUC [Ex4 - 3 - 2] (puzzle: Exclusion 4),167,–,–,–
"CCCAGUUAUUGAGGAUAUUGUACAUGAGGAUCACCCAUGUAAUAAAUGAGGAUUUCGGGUGUCUACAAGAAGGCAAGGAUAGGC [Ostracism 20 - Jieux - Exclusion NG 2] (Eterna round: R96, puzzle: Exclusion NG 2)",–,54.6,46.1,46.8
"GAAUUAGUAGGAUAUACAUGAGGAUCACCCAUGUCUCAAACCAUGUACAGGAGAGGCUGUAGAAGGACUGAACA [Eternabot (Original) Solution 19] (Eterna round: R97, puzzle: Exclusion 3)",–,36,–,31.7
"UGUAAGCUAGGAUAUGCUUUGGGAAAGCAUUCCUUCGAUAAACUUGAGGAUCACCCAAGUAGAAGGAGCUUACA [salish99_ex2_r4_005] (Eterna round: R97, puzzle: Exclusion 2)",–,20.8,–,12.4
"UUGAAUUAGCAGGAUAUGGGAGUCGAUAGACACCCAGAAGGGCUAACAUGAGGAUCACCCAUGUGUCCUAUCAA [Mod of Eli 22 - Jieux - Exclusion 6] (Eterna round: R97, puzzle: Exclusion 6)",–,204,–,33.9
"AACCUGAGGCAAAGCUUUAGGUGUACAUGAGGAUCACCCAUGUAGGAUAUGGUAGGCAAAGCUUACCAGAAGGACAUAAUGAUG [Mat - Exclusion NG 3 - Mod of JL - D47] (Eterna round: R96, puzzle: Exclusion NG 3)",–,100,45.1,83.7
"AUAUACGGGCAGGAUAUGCGAGCCAGAAAGCACGCAGAAGGGCUAACAUGAGGAUCACCCAUGUGAGCAACUCG [Eternabot (Original) Solution 9] (Eterna round: R97, puzzle: Exclusion 6)",–,18.1,–,14.9
AAAAGCUAAGGAUAUACAUGAGGAUCACCCAUGUACACCGGUACGGGUGCGAACUCCUGUAGAAGGUGGGAUAA [Atatlege] (puzzle: Exclusion 3),121,–,–,–
"AAUUUCGCGGCCCGAUGACUGCGUACUGACAGUGAGCUCACAUGAGGAUCACCCAUGUUUUUUGCUCGUAAAUCAGA [Quarat] (Eterna round: R96, puzzle: Sensor v2, turn-off variant 2)",–,13.6,12.3,16.1
"AUUGUUUGAUACCUUUAAUACAUGAGGAUCACCCAUGUUAUCGAGGAUAUGUAGAAGAGAUGAGAACAGAAGGCGAAGUAAGAG [JR_ExcNG3_Sub096] (Eterna round: R96, puzzle: Exclusion NG 3)",–,21.3,11.1,16.5
"GACUGUCGAGAGGAUAUCUUUCCCAAGCGGGUCAGAGAAGGCUUGACAUGAGGAUCACCCAUGUUGAUUGCUAG [EX6 C.23] (Eterna round: R97, puzzle: Exclusion 6)",–,389,–,140
"UACCCUAAGGUGAGGAUAUCUAGGCCUAGAGGUCAAGAGAAGGCACAUGAGGAUCACCCAUGUAGUUGAUACGA [BmEX4 B.25] (Eterna round: R97, puzzle: Brourd's mod of Exclusion 4)",–,77.4,–,21.9
"ACGUACUGAGGAUAUACGAACAUGUCAAAAGACGUGAAGGGACAUGAGGAUCACCCAUGUAGAAGGCAGUACGA [Mat - Exclusion 2 - JL mod - D7] (Eterna round: R96, puzzle: Exclusion 2)",–,–,32.7,–
"GAUAAUGAAGGAUAUACAGGCGGUCCGUGACUAGUCUUCAUACAUGAGGAUCACCCAUGUAGAAGGUCAAUGUU [Eternabot (L1) Solution 64] (Eterna round: R97, puzzle: Exclusion 2)",–,23.3,–,14.4
